Laboratory results taken from patent US20230304022, “CHIMERIC POLYPEPTIDES HAVING TARGETED BINDING SPECIFICITY” (The Scripps Research Institute, published 2023).

Experiments:
Avr15 TALE NTD SSR = Avr15 TALE NTD SSR (synthetic, UniProt Q56830 SEQ:151-834, K230S,Q231S,W232R (KQW to SSR))
Avr15 TALE NTD KRSNG = Avr15 TALE NTD KRSNG (synthetic, UniProt Q56830 SEQ:151-834, Q231R,W232S,S233N (KQWSG to KRSNG))
Avr15 TALE NTD SRC = Avr15 TALE NTD SRC (synthetic, UniProt Q56830 SEQ:151-834, K230S,Q231R,W232C (KQW to SRC))
Avr15 TALE NTD PKD = Avr15 TALE NTD PKD (synthetic, UniProt Q56830 SEQ:151-834, K230P,Q231K,W232D (KQW to PKD))
Avr15 TALE NTD PTR = Avr15 TALE NTD PTR (synthetic, UniProt Q56830 SEQ:151-834, K230P,Q231T,W232R (KQW to PTR))

| Binder | binding result (Avr15 TALE NTD SSR) | binding result (Avr15 TALE NTD KRSNG) | binding result (Avr15 TALE NTD SRC) | binding result (Avr15 TALE NTD PKD) | binding result (Avr15 TALE NTD PTR) |
| --- | --- | --- | --- | --- | --- |
| G-Avr15 site (dsDNA) DNA 1: GATAAACCCCCTCCAA DNA 2: TTGGAGGGGGTTTATC | binds | binds | binds |  |  |
| A-Avr15 site (dsDNA) DNA 1: AATAAACCCCCTCCAA DNA 2: TTGGAGGGGGTTTATT |  |  |  | binds | binds |
